In US20250170182A1:

Tests used:
[1] = target: human wild type FLT3 (human) (UniProt P36888); assay: cell-based or functional assay
[2] = target: human wild type CD123 (human) (UniProt P26951); assay: cell-based or functional assay
Sequence of UniProt P26951 (P26951 19-378 limits assumed): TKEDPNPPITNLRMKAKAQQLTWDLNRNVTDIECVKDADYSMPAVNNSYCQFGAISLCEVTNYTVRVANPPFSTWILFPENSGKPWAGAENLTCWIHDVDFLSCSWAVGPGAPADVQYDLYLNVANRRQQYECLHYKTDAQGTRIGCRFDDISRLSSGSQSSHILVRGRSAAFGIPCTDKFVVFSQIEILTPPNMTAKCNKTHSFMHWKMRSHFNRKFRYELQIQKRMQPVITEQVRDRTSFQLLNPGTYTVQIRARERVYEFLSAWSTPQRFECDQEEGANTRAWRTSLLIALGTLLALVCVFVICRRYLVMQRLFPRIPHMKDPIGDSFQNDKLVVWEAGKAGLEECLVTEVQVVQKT

Row | Substance | surviving K562 target cells at E:T=10 relative to E:T=0 [1] | surviving K562 target cells at E:T=10 relative to E:T=0 [2]
1 | 4G8-CAR (IgG4 hinge, CD28 TM, CD28z, CD3z) targeting FLT3 domain 4 | < 2% | –
2 | CSL362-CAR (CD8a hinge, CD28 TM, CD28z, CD3z) targeting CD123 N-terminal domain | – | < 2%
